6 sequences from the supplement of paper PMC11316812 can be followed below.

One data set deals with hTERT-HMEC. Nature of the data set: percentage of EdU-negative (G0-arrested) nuclei per well, 72 h; higher = more G0 arrest. The settings on record: reference: sequence is the full UniProt precursor, the tested protein was the secreted form or ectodomain.
For a further data set, the system named is MCF7. The data set is described as above. The settings on record: reference: sequence is the full UniProt precursor, the tested protein was the secreted form or ectodomain.
The mark [1] stands for this setting: protein concentration 0.0225 µM.
Setting [2] is: protein concentration 0.00575 µM.
The mark [3] stands for this setting: protein concentration 0.0575 µM.
Where [4] appears, read: protein concentration 0.0174286 µM.
Where [5] appears, read: protein concentration 0.174286 µM.

± gives the standard deviation of the averaged measurements.
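Also: secreted proteins added to cultured cells, EdU pulse at the end, nuclei found by Hoechst imaging, EdU status from nuclear versus surrounding ring intensity ratio, PBS as neutral control.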

On to “MFSTKALLLAGLISTALAGPWANICAGKSSNEIRTCDRHGCGQYSAQRSQRPHQGVDILCSAGSTVYAPFTGMIVGQEKPYQNKNAINNGVRISGRGFCVKMFYIKPIKYKGPIKKGEKLGTLLPLQKVYPGIQSHVHIENCDSSDPTAYL”, for which the “percentage of EdU-negative” value in the data set on hTERT-HMEC (setting [1]) amounted to 4.82 ± 1.7%; in the data set with hTERT-HMEC (protein concentration 0.225 µM) it was 7.53 ± 0.43%; in the data set with MCF7 (setting [1]), 23.8 ± 1.3%; in the data set with MCF7 (protein concentration 0.225 µM), 26.3 ± 0.79%.

Regarding “MKITGGLLLLCTVVYFCSSSEAASLSPKKVDCSIYKKYPVVAIPCPITYLPVCGSDYITYGNECHLCTESLKSNGRVQFLHDGSC”, the “percentage of EdU-negative” value in the data set with hTERT-HMEC (setting [1]) was determined as 5.21 ± 1.1%; with hTERT-HMEC (protein concentration 0.225 µM), 6.62 ± 0.67%; with MCF7 (setting [1]), 23.6 ± 1.3%; in the data set with MCF7 (protein concentration 0.225 µM), 24.5 ± 2.9%.

As to “MQCWQQPFLRFLQQPFFLATASLAGSSSSFNVLIPKRDEDGDGEGPGDVTAGVSRAAGSPSGWEAPWVQQPRCCRRATPVCCAGQGPPRSLQQGGSEVLLGQLCSPEPDWLPSSGPKVAKQVFQVAAELLQHPEHFVPSSVPEGCVHKPGSTCDGSLKGRAYPSCVPKRDPEHSREESHPLSG [Q6UXR6]”, the “percentage of EdU-negative” value with hTERT-HMEC (setting [1]) was 4.87 ± 0.51%; in the data set on hTERT-HMEC (protein concentration 0.225 µM) it was 4.95 ± 1%; in the data set on MCF7 (setting [1]) it was 26.15 ± 0.12%; in the data set with MCF7 (protein concentration 0.225 µM), 26.1 ± 0.63%.

For “MAVKKIAIFGATGQTGLTTLAQAVQAGYEVTVLVRDSSRLPSEGPRPAHVVVGDVLQAADVDKTVAGQDAVIVLLGTRNDLSPTTVMSEGARNIVAAMKAHGVDKVVACTSAFLLWDPTKVPPRLQAVTDDHIRMHKVLRESGLKYVAVMPPHIGDQPLTGAYTVTLDGRGPSRVISKHDLGHFMLRCLTTDEYDGHSTYPSHQYQ”, the “percentage of EdU-negative” value in the data set with hTERT-HMEC (setting [1]) is 5.08 ± 0.64%; in the data set with hTERT-HMEC (protein concentration 0.225 µM), 5.64 ± 0.7%; in the data set with MCF7 (setting [1]), 22.7 ± 3%; in the data set on MCF7 (protein concentration 0.225 µM) it was 23.37 ± 0.19%.

With “MVRPMLLLSLGLLAGLLPALAACPQNCHCHSDLQHVICDKVGLQKIPKVSEKTKLLNLQRNNFPVLAANSFRAMPNLVSLHLQHCQIREVAAGAFRGLKQLIYLYLSHNDIRVLRAGAFDDLTELTYLYLDHNKVTELPRGLLSPLVNLFILQLNNNKIRELRAGAFQGAKDLRWLYLSENALSSLQPGALDDVENLAKFHVDRNQLSSYPSAALSKLRVVEELKLSHNPLKSIPDNAFQSFGRYLETLWLDNTNLEKFSDGAFLGVTTLKHVHLENNRLNQLPSNFPFDSLETLALTNNPWKCTCQLRGLRRWLEAKASRPDATCASPAKFKGQHIRDTDAFRSCKFPTKRSKKAGRH”, the “percentage of EdU-negative” value with hTERT-HMEC (setting [2]) amounted to 5.33 ± 0.1%; with hTERT-HMEC (setting [3]), 7.33 ± 0.97%; in the data set with MCF7 (setting [2]), 26.1 ± 0.54%; in the data set with MCF7 (setting [3]), 29 ± 0.99%.

Regarding “MGWLPLLLLLTQCLGVPGQRSPLNDFQVLRGTELQHLLHAVVPGPWQEDVADAEECAGRCGPLMDCRAFHYNVSSHGCQLLPWTQHSPHTRLRRSGRCDLFQKKDYVRTCIMNNGVGYRGTMATTVGGLPCQAWSHKFPNDHKYTPTLRNGLEENFCRNPDGDPGGPWCYTTDPAVRFQSCGIKSCREAACVWCNGEEYRGAVDRTESGRECQRWDLQHPHQHPFEPGKFLDQGLDDNYCRNPDGSERPWCYTTDPQIEREFCDLPRCGSEAQPRQEATTVSCFRGKGEGYRGTANTTTAGVPCQRWDAQIPHQHRFTPEKYACKDLRENFCRNPDGSEAPWCFTLRPGMRAAFCYQIRRCTDDVRPQDCYHGAGEQYRGTVSKTRKGVQCQRWSAETPHKPQFTFTSEPHAQLEENFCRNPDGDSHGPWCYTMDPRTPFDYCALRRCADDQPPSILDPPDQVQFEKCGKRVDRLDQRRSKLRVVGGHPGNSPWTVSLRNRQGQHFCGGSLVKEQWILTARQCFSSCHMPLTGYEVWLGTLFQNPQHGEPSLQRVPVAKMVCGPSGSQLVLLKLERSVTLNQRVALICLPPEWYVVPPGTKCEIAGWGETKGTGNDTVLNVALLNVISNQECNIKHRGRVRESEMCTEGLLAPVGACEGDYGGPLACFTHNCWVLEGIIIPNRVCARSRWPAVFTRVSVFVDWIHKVMRLG [G3XAK1]”, the “percentage of EdU-negative” value with hTERT-HMEC (setting [4]) turned out to be 4.79 ± 0.57%; with hTERT-HMEC (setting [5]), 5.55 ± 0.076%; in the data set on MCF7 (setting [4]) it was 22.6 ± 1.9%; with MCF7 (setting [5]) it was 27.79 ± 0.11%.
